US20240043489A1, “Cytokine Prodrugs Comprising a Cleavable Linker” (Trutino Biosciences Inc., priority 2020, published 2024)
Entries after “also recorded” stand apart in the source; their conditions may differ.

Tests used:
B16F10 = assay: In vivo efficacy in B16F10 melanoma model (Example 12)
Method: (§1) For the efficacy studies, C57BL/6 or BALB/c mice were subcutaneously inoculated with malignant cells and when the average tumor volume reached on average 90 mm^3, animals were randomized into 2 groups based on tumor volumes (n=10 mice per treatment group). Mice were dosed intravenously every 3 days (Q3D) at 20 mg/kg. Tumors, body weights and clinical observations were measured/collected twice a week for the duration of the study. Tumor volume is shown in FIGS. 10A-D, 11A, 12A, and 13B-C. […] Liver and kidney enzyme results corresponding to FIGS. 11A and 12A are shown in FIGS. 11B-D and 12B-D, respectively.

RM-1 = assay: In vivo efficacy in RM-1 prostate cancer model
Method: as §1

CT-26 = assay: In vivo efficacy in CT-26 colorectal syngeneic model; design: species or system mice; details: CT-26, BALB/c, 20 mpk IV Q3D, D13
Method: as §1

CTLL-2 cells = assay: CTLL-2 proliferation assay (MTT); assay type: cell-based
Method: (§2) Recombinant MMP9 and/or MMP2 (R&D Systems) was first activated with p-aminophenylmercuric acetate and this activated protease or equivalent amount of activating solution without the protease was used to digest or mock digest the fusion protein for 1 hr, 2 hr, 4 hr and overnight (18-22 hr) at 37 C. Cleavage assays are set up in TCNB buffer: 50 mM Tris, 10 mM CaCl2), 150 mM NaCl, 0.05% Brij-35 (w/v), pH 7.5. Digested protein was aliquoted and stored at −80° C. prior to testing. Aliquots of digests were subsequently analyzed by SDS-PAGE followed by Western blotting to evaluate the extent of cleavage. Digests were also assessed in functional assays such as CTLL-2 proliferation and HEK-Blue Interleukin reporter assays. As shown in FIGS. 2A-E, essentially complete cleavage by MMP9 protease of the fusion proteins with functional site is seen after overnight incubation. In contrast, proteins containing a scrambled MMP cleavage site are not cut (FIG. 2E).
IL-2 activity was measured using either CTLL-2 cells (ATCC) or the reporter cell line HEK Blue IL2 (Invivogen, San Diego). In brief, for the CTLL-2 assay a titration of untreated and digested samples is added to 40 000 CTLL-2 cells per well in 100 ul medium in a 96-well plate and incubated at 37C in 5% CO2 for 18-22 hr. At the end of this period, 50ug/well Thiazolyl Blue Tetrazolium Bromide (MTT) (Sigma-Aldrich) was added and the plate was incubated for 5 hr at 37C in 5% CO2. Cells were lysed with 100 µl/well 10% SDS (Sigma) acidified with HCl, incubated at 37C for 4 hr, and absorbance was read at 570 nm. Recombinant human or mouse IL-2 (Peprotech and R&D systems respectively) was used as a positive control. FIGS. 3A-B, 3K-L and 3N-P show examples of untreated and digested fusion proteins evaluated in CTLL-2 proliferation assay.

EMT06 = assay: In vivo efficacy in EMT06 breast syngeneic model; design: species or system mice; details: EMT06, BALB/c, 20 mpk IV Q3D, D20
Method: as §1

fibronectin = fibronectin (Homo sapiens, UniProt P02751); assay: IL-2 fusion protein plate binding assay to fibronectin
Method: A similar plate-based assay was developed to interrogate binding of IL-2 fusion variants to fibronectin. 96-well plates were coated with 4 ug/mL of fibronectin (Sigma) or control BSA for 18-22 h at room temperature on shaker (350 rpm). After washing, wells are blocked with protein-free blocking buffer (Pierce) for 90 min, then fusion proteins are titrated in blocking buffer-0.1% Tween 20 pH 7.5 and/or pH 6 and added for 1 hr at room temperature with shaking. After washing, an anti-mouse IL-2 biotin-labelled detection antibody (JES6-5H4, ThermoFisher) is added and binding is detected using Ultra Streptavidin HRP (ThermoFisher). The plate was developed by adding the chromogenic tetramethylbenzidine substrate (Ultra TMB, ThermoFisher). The reaction is stopped by addition of 0.5M H2SO4 and the absorbance is read at 450-650 nm.

collagen = assay: IL-2 fusion protein collagen-agarose pulldown (immunoblot quantitation); assay type: binding
Method: To test binding to collagen, a pulldown assay using agarose cross-linked to collagen (Sigma) was performed. IL-2 fusion proteins were incubated with collagen-agarose or control agarose beads for 18-22 h at 4C with gentle rotation in 1% BSA/PBS-0.05% Tween 20. After washing, proteins bound to the beads were eluted by resuspending beads in SDS sample buffer (Life Technologies). Bound proteins were then separated by SDS-PAGE on 4-12% BisTris gradient gel followed by immunoblotting with goat anti-mouse IL-2 polyclonal antibody (AF-402-NA; R&D systems). Donkey Anti-goat RP-conjugated antibody was used for detection (Jackson Immuno Research, West Grove, PA) and the blot was developed using the SuperSignal West Femto Maximum sensitivity detection reagent (ThermoFisher) following the manufacturer's recommendations.

MMP9 = biological target: T1, MMP9 (Mus musculus, UniProt P41245); assay: Cleavage of fusion protein by MMP9 protease (SDS-PAGE / Western blot); assay type: biochemical
T1 construct: purchased R&D Systems
Method: as §2
Untreated and digested fusion proteins were evaluated for cleavage products by Western blot. The following monoclonal antibodies were used: rat anti-mouse IL-2 antibody (JES6-1A12; ThermoFisher), goat anti-mouse IL-2 polyclonal antibody (AF-402-NA; R&D systems), mouse anti-6xHis monoclonal antibody (MA1-21315, ThermoFisher), Anti-mIgG Fc HRP conjugated (ThermoFisher cat #A16084), and Anti-human IL2 antibody (Invitrogen, cat #MA5-17097, mouse IgG1). Detection was performed using either a goat anti-rat HRP-conjugated antibody, Donkey Anti-goat HRP-conjugated antibody or Goat Anti-mouse HIRP conjugated (Jackson Immuno Research, West Grove, PA) and developed using the SuperSignal West Femto Maximum sensitivity detection reagent (ThermoFisher) following the manufacturer's recommendations.

MC38 tumor = assay: Systemic IV injection in syngeneic MC38 colorectal cancer model; assay type: in vivo
Method: The objective of this study is to evaluate efficacy of Construct B in the MC38-bearing female C57BL/6 mice. For this study, C57BL/6 6-8 weeks old female mice (Jackson Labs) were subcutaneously inoculated with MC38 cells (10^6 cells/animal), and when the average tumor volume reached about 80 mm^3, animals were randomized into 2 groups based on tumor volumes (8 mice per treatment group). Animals were dosed according to the following study design:
Mice were dosed over a 21 day period then further observed for an additional week.

T1 sequence (P41245 108-730): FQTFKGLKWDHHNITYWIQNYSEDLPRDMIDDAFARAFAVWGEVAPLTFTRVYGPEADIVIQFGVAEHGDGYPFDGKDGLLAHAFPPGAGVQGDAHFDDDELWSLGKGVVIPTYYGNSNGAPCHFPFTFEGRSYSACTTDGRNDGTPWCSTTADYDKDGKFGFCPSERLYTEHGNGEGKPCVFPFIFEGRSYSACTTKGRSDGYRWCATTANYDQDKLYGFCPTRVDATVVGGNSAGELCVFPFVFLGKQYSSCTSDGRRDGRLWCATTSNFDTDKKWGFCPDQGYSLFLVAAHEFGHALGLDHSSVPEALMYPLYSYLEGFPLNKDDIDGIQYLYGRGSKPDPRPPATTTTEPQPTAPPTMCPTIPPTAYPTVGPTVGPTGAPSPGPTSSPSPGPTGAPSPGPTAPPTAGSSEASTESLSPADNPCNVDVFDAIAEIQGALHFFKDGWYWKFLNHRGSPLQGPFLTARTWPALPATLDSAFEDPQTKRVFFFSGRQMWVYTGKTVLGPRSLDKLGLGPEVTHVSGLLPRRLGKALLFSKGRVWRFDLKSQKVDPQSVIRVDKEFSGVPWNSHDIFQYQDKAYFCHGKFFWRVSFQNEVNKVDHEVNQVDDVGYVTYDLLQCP
fibronectin, sequence (P02751 32-2477, species assumed): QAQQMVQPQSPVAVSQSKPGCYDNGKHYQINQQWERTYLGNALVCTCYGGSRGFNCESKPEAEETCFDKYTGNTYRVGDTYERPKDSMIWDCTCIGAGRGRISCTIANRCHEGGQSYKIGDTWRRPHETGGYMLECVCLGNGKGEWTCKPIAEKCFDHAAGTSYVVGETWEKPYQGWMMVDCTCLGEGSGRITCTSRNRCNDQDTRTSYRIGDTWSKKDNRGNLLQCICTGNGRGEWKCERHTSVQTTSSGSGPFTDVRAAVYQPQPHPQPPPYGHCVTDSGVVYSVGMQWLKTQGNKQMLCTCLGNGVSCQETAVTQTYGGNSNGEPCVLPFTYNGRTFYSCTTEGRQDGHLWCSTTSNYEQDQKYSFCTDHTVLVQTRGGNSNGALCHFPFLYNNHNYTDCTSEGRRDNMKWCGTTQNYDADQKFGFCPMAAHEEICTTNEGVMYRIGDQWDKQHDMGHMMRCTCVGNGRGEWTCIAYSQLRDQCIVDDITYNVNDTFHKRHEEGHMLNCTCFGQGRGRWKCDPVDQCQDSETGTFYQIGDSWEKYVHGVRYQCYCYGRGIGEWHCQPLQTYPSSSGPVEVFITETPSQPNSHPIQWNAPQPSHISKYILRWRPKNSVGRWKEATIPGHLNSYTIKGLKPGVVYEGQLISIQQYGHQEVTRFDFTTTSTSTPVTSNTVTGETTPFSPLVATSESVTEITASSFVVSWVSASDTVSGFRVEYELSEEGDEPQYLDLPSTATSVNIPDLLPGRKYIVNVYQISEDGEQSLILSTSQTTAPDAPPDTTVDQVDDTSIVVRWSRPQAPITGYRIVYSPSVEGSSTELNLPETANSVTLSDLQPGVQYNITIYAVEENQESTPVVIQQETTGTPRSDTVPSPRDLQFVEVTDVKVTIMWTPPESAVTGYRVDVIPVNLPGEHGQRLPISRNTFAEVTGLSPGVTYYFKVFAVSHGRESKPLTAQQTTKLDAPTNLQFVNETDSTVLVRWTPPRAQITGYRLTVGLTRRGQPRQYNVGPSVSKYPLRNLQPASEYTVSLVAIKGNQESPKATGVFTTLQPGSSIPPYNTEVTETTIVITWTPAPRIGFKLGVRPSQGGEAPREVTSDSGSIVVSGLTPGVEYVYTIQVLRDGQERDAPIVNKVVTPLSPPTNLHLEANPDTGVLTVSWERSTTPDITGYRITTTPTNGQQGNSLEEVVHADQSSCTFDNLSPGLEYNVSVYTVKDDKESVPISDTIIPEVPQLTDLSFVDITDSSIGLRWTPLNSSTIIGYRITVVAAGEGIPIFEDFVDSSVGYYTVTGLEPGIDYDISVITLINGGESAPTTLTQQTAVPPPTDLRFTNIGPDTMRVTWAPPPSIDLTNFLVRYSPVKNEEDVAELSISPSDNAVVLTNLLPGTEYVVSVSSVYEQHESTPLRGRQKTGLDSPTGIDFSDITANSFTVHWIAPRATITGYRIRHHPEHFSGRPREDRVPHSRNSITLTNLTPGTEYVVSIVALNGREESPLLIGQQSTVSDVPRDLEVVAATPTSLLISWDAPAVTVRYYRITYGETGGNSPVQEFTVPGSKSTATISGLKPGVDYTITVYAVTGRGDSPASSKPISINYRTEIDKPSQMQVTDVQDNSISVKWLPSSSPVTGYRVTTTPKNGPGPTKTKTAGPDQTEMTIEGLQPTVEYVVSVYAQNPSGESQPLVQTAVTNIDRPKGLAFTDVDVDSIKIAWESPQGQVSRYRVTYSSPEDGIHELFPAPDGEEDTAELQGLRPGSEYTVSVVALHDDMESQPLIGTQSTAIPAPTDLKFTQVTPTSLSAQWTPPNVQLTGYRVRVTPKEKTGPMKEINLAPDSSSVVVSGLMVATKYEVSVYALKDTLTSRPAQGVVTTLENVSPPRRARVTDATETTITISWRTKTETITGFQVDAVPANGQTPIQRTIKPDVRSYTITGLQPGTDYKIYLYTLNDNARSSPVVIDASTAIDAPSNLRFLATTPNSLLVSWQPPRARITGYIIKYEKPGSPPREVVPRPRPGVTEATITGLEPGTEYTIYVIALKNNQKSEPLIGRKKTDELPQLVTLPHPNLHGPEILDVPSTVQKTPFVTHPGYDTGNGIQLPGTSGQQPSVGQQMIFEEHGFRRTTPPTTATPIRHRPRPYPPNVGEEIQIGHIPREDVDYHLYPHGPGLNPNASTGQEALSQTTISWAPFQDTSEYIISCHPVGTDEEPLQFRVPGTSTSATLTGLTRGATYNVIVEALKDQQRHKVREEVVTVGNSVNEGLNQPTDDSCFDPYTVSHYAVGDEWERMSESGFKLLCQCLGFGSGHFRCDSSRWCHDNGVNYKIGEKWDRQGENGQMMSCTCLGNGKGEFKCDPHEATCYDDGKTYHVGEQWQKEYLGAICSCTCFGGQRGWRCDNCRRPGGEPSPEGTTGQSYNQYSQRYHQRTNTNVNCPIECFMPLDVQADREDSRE

B1: Construct B: SEQ ID NO 101: m IL2-2x(SG4)-MMPcs1-2x(G4S)-IL2Ralpha-mIgG1 Fc (protein)
chain: APTSSSTSSSTAEAQQQQQQQQQQQQHLEQLLMDLQELLSRMENYRNLKLPRMLTFKFYLPKQATELKDLQCLEDELGPLRHVLDLTQSKSFQLEDAENFISNIRVTVVKLKGSDNTFECQFDDESATVVDFLRRWIAFCQSIISTSPQSGGGGSGGGGGPLGVRGGGGGSGGGGSELCLYDPPEVPNATFKALSYKNGTILNCECKRGFRRLKELVYMRCLGNSWSSNCQCTSNSHDKSRKQVTAQLEHQKEQQTTTDMQKPTQSMHQENLTGHCREPPPWKHEDSKRIYHFVEGQSVHYECIPGYKALQRGPAISICKMKCGKTGWTQPQLTCVDEREHHRFLASEESQGSRNSSPESETSCPITTTDFPQPTETTAMTETFVLTMEYKGCKPCICTVPEVSSVFIFPPKPKDVLTITLTPKVTCVVVDISKDDPEVQFSWFVDDVEVHTAQTQPREEQFNSTFRSVSELPIMHQDWLNGKEFKCRVNSAAFPAPIEKTISKTKGRPKAPQVYTIPPPKEQMAKDKVSLTCMITDFFPEDITVEWQWNGQPAENYKNTQPIMDTDGSYFVYSKLNVQKSNWEAGNTFTCSVLHEGLHNHHTEKSLSHSPGK
For B1, the “Max TGI %” value (B16F10; B16F10, C57BL/6, 20 mpk IV Q3D, D12) was 49%, the “signs of toxicity (body weight loss, liver and/or kidney enzymes, clinical observations)” value (B16F10; B16F10 model, 20 mg/kg IV Q3D) was “no signs of toxicity” and the “signs of toxicity (body weight loss, liver and/or kidney enzymes, clinical observations)” value (RM-1; RM-1 model, 20 mg/kg IV Q3D) was “no signs of toxicity”. For the same molecule, the “Max TGI %” value (RM-1; RM_1, C57BL/6, 20 mpk IV Q3D, D10) was 58%, the “Max TGI %” value (CT-26) was 46% and the “CTLL-2 cell proliferation, MMP-9 treated construct” value (CTLL-2 cells; cleaved by MMP-9) was “stimulates CTLL-2 cell proliferation in a dose dependent manner”. The “CTLL-2 cell proliferation, uncleaved construct” value (CTLL-2 cells; uncleaved) was “minimally stimulatory”, the “Max TGI %” value (EMT06) was 43% and the “fibronectin binding at acidic pH” value (fibronectin; pH 6) was “No significant binding”. The “fibronectin binding at pH 7.5” value (fibronectin; pH 7.5 (neutral)) was “No significant binding”, the Bound (collagen; blot quantitation, collagen-agarose bound fraction) was 2306 and the Normalized (collagen; bound fraction relative to Construct B (fold)) was 1. The “Bound (% input)” value (collagen; fraction bound to collagen-agarose) was 0.3%, the “full-length cytokine prodrug remaining” value (MMP9; 20 hour +MMP time point) was “only a faint band” and the “time at which cleavage product was detectable” value (MMP9; +MMP-9 digestion, Western blot) was 1 h. The “adverse effect / systemic toxicity” value (MC38 tumor; 10 mpk IV Q3D for 21 D) was “Essentially no systemic toxicity; also recorded: no adverse effect”, the “mouse body weight during treatment” value (MC38 tumor; 10 mpk IV Q3D for 21 D) was “substantially constant” and the “tumor growth (qualitative)” value (MC38 tumor; IV Q3D, eight administrations, vs vehicle) was “virtually no tumor growth after initiation of treatment”. For the same molecule, the “inhibition of tumor growth / Max TGI %” value (MC38 tumor; MC-38, C57BL/6, 10 mpk IV Q3D, Day 21) was 92% and the “complete tumor regressions ('cures')” value (MC38 tumor; out of 8 cases, 10 mpk IV Q3D for 21 D) was 3.
